Experimental data as given in patent US20150018528A1.

Key:
[1] = target: Type II PGLYRP1 on HEK293-6E cells (Example 15) (human); experiment: flow cytometry on transfected HEK293-6E cells, probe 5 ug/ml; grade of MFI ratio over negative control (++++ is >30)
[2] = target: Type II PGLYRP3 + 4 on HEK293-6E cells (human); experiment: flow cytometry on transfected HEK293-6E cells
[3] = target: Type II PGLYRP3 on HEK293-6E cells (human); experiment: flow cytometry on transfected HEK293-6E cells
[4] = target: Type II PGLYRP1 on HEK293-6E cells (Example 15) (human); experiment: flow cytometry on transfected HEK293-6E cells
[5] = target: human TREM-1 on BWZ.36/hTREM-1:DAP12:NFAT-LacZ reporter cells (human) (UniProt Q9NP99); experiment: cell-based or functional assay
[6] = target: TREM-1-interacting protein on PGN-stimulated neutrophils; experiment: flow cytometry competition: 2 µg/ml TREM-1 tetramer as probe with 100 µg/ml TREM COMP
[7] = target: TREM-1-interacting protein on PGN-stimulated neutrophils; experiment: flow cytometry on PGN-stimulated neutrophils, 2 µg/ml probe, goat anti hFc/PE
[8] = target: Type II 1.0 PGLYRP1 on HEK293 6E cells (human); experiment: cell-based or functional assay
[9] = target: TREM-1-interacting protein on PGN-stimulated neutrophils; experiment: flow cytometry competition: 2 µg/ml TREM-1 tetramer as probe with 100 µg/ml DCIR COMP; did not compete

Sequence of Type II PGLYRP3 + 4 on HEK293-6E cells (human) (Q96LB9 other isoform, or with tags, fused parts or gaps, form in doubt, chain 1 of 2): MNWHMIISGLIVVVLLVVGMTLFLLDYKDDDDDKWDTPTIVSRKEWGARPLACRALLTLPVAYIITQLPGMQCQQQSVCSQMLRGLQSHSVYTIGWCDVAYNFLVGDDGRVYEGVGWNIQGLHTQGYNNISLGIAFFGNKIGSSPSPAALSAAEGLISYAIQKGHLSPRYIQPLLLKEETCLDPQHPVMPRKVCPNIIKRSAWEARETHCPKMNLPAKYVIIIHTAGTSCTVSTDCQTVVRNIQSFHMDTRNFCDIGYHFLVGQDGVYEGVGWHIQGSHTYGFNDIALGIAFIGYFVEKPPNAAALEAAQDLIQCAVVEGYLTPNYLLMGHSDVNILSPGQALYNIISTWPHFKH
Sequence of Type II PGLYRP3 + 4 on HEK293-6E cells (human) (Q96LB8 other isoform, or with tags, fused parts or gaps, form in doubt, chain 2 of 2, further chain): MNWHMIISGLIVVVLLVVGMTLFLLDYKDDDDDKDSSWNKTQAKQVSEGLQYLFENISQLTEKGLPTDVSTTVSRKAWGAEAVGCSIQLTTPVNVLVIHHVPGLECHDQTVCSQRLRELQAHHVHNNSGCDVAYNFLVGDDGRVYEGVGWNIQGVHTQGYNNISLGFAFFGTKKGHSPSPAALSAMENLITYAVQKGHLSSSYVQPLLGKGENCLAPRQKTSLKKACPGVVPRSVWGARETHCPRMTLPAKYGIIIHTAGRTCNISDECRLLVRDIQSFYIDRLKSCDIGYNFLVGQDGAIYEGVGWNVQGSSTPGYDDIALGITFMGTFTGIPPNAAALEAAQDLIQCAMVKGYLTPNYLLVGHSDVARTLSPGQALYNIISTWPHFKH
Sequence of Type II PGLYRP3 on HEK293-6E cells (human) (Q96LB9 other isoform, or with tags, fused parts or gaps, form in doubt): as the sequence (Q96LB9 other isoform, or with tags, fused parts or gaps, form in doubt, chain 1 of 2) above
Sequence of Type II PGLYRP1 on HEK293-6E cells (Example 15) (human) (chain, as listed by the source limits assumed, form in doubt): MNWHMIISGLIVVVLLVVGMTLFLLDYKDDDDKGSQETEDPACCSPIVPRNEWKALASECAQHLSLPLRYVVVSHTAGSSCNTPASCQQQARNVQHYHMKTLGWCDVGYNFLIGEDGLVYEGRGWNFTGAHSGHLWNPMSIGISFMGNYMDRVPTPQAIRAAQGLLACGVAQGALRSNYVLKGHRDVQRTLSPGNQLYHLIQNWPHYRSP
Sequence of human TREM-1 on BWZ.36/hTREM-1:DAP12:NFAT-LacZ reporter cells (human) (Q9NP99 21-234): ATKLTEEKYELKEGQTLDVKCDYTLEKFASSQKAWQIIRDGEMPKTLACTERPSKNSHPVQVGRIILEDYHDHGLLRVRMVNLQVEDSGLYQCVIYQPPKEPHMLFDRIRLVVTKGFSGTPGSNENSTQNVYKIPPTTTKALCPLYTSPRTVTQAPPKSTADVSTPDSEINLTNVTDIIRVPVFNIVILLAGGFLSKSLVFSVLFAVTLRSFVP
Sequence of Type II 1.0 PGLYRP1 on HEK293 6E cells (human) (chain, as listed by the source limits assumed): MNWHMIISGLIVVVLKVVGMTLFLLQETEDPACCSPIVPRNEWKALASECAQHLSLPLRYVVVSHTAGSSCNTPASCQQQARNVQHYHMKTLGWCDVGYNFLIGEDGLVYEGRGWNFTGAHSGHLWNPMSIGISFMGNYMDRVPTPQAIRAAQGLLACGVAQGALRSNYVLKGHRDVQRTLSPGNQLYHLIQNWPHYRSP

Row | ratio of MFI of probe staining over negative control staining [2] | ratio of MFI of probe staining over negative control staining [3] | ratio of MFI of probe staining over negative control staining [4] | Substance | further results
1 | < 1 | < 1 |  | huTREM-1.Fc dimer (C0099) (Fc fusion) | ratio of MFI of probe staining over negative control staining [1]: > 30
2 | < 1 | < 1 | < 1 | huTREML1.Fc dimer (C0246) (Fc fusion) | 
3 |  |  |  | Type II 1.0 PGLYRP1 on HEK293 6E cells (ligand) | Fold activity of BWZ/hTREM1 reporter cells co-incubated with transfected HEK293 6E cells, without PGN, against empty vector [5]: 24 fold
4 | < 1 | < 1 | < 1 | huTREML2.Fc dimer (C0247) (Fc fusion) | 
5 |  |  |  | TREM COMP (hTREM-1-COMP-SBP38x2-6HIS) | % positive cells (TREM-1 tetramer staining with competitor) [6]: 10%
6 |  |  |  | human TREM-1-G4Sx3-TREM-1/Fc6mut (TREM-1 tetramer) (Fc fusion) | % positive cells [7]: 39%
7 |  |  |  | IsoAb (isotype control antibody of Example 18) | Activity of BWZ/hTREM1 reporter cells with Type II 1.0 PGLYRP1 transfectants (without antibody: 100%) [8]: 98%
8 | < 1 | < 1 | < 1 | huTREM2.Fc dimer (C0248) (Fc fusion) | 
9 |  |  |  | DCIR COMP (6HIS-SBP38x2-COMP-hDCIR) | % positive cells (TREM-1 tetramer staining with competitor) [9]: 41%
